Common to all, as to conditions: protein: recombinant; tags: His-MBP removed; tRNA fold
One series deals with T1, Arc1p dN K269A (Saccharomyces cerevisiae, UniProt P46672 132-376, K269A;del1-131).
T1 sequence: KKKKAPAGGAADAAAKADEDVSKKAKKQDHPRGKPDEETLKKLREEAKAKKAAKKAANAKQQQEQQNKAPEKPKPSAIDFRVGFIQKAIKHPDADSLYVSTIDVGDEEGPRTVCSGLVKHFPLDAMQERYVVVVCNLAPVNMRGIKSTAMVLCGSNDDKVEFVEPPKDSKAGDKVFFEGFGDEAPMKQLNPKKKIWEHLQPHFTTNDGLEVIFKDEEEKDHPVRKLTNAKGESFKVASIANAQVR
The experiment in a line: ITC; ITC (Arc1p): 25 mM Tris-HCl pH 7.4, 150 mM NaCl, 2 mM MgCl2, 25 °C. FP and competition FP: 25 mM Tris-HCl pH 7.5, 150 mM NaCl (Arc1p) or 50 mM NaCl (Trbp111), 2 mM MgCl2, room temperature. For orientation: Isothermal titration calorimetry measures the heat released or taken up as one component is titrated into another.

Series [1] concerns the target T2, Arc1p dN V271A/M273A/M281A (Saccharomyces cerevisiae, UniProt P46672 132-376, V271A;M273A;M281A;del1-131).
T2 sequence: T1 sequence with A138K, V140A, M142A, M150A
Described as above.

For the next series, the target named is T3, Arc1p dNdM1 (Saccharomyces cerevisiae, UniProt P46672 166-376).
T3 sequence: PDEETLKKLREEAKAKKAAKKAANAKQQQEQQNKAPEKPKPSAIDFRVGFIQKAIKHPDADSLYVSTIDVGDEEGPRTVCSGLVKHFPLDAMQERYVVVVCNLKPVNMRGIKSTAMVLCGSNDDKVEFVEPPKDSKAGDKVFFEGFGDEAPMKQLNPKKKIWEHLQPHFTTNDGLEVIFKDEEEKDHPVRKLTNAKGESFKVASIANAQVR
The description is as above.

The target of another series is T4, Arc1p dN (Saccharomyces cerevisiae, UniProt P46672 132-376, del1-131).
T4 sequence: T1 sequence with A138K
In words: competition fluorescence polarization; ITC (Arc1p): 25 mM Tris-HCl pH 7.4, 150 mM NaCl, 2 mM MgCl2, 25 °C. FP and competition FP: 25 mM Tris-HCl pH 7.5, 150 mM NaCl (Arc1p) or 50 mM NaCl (Trbp111), 2 mM MgCl2, room temperature. Background: Fluorescence polarisation rises when a labelled molecule tumbles more slowly, as on binding a larger partner.

In a further series the target is T5, Arc1p (Saccharomyces cerevisiae, UniProt P46672 1-376).
T5 sequence: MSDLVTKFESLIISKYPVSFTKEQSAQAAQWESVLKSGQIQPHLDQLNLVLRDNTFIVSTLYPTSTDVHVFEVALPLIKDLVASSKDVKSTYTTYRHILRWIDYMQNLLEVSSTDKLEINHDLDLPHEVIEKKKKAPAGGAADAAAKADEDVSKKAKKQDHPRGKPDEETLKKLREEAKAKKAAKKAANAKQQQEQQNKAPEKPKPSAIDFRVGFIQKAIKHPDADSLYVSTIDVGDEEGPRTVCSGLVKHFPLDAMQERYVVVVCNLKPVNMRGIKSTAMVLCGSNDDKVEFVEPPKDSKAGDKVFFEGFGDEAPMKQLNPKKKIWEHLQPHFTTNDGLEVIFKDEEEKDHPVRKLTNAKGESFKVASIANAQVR
The series is described as above.

By Kd is commonly meant the equilibrium constant for the complex coming apart. One may read the IC50 as the point on the concentration scale where inhibition reaches its midpoint.

Changes are numbered by the printed parent chain.

B1: tRNAIle WT (structured_RNA)
RNA: AGGCUUGUAGCUCAGGUGGUUAGAGCGCACCCCUGAUAAGGGUGAGGUCGGUGGUUCAAGUCCACUCAGGCCUACCA
Consider B1, for which the values for the Kd (with Arc1p dN K269A; in series [1]; with Arc1p dNdM1) were 1500 ± 55 nM, 544 ± 215 nM and 2550 ± 456 nM, respectively. In addition, the values for the half-maximal inhibitory concentration (IC50) with Arc1p dN and with Arc1p were 363 ± 96.4 nM and 948 ± 241 nM, respectively.

Source of the values: article PMC11286949, “Structural basis of tRNA recognition by the widespread OB fold”.
